The source of these data is the supplement of paper PMC10567573.

The labels stand for the following.
B1: FBXO39 (parent)
chain: PSRVHASEVESAVWYVKKFGRYLE
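Also: lentivirally expressed fusions sorted by FACS into six bins by GFP to DsRed ratio, PSI derived from sequencing read proportions per bin multiplied by bin number.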

The variants in the data set derive from B1. The data set can be described thus: protein stability index of a GFP-peptide fusion (GPS, HEK-293T) (PSI 1-6); higher = more stable. As to conditions: c terminus: a fixed tail appended.
As to PSRVHAKEVESAVWYVKKFGRYLE [S7K], the protein stability index was found to be 1.67.

On to PSRVHATEVESAVWYVKKFGRYLE [S7T], for which the protein stability index was 1.77. On to PSRVHAQEVESAVWYVKKFGRYLE [S7Q], for which the protein stability index is 2.36. Regarding PSRVHAFEVESAVWYVKKFGRYLE [S7F], the protein stability index turned out to be 1.97. The same measure for PSRVHAWEVESAVWYVKKFGRYLE [S7W]: 1.59; for PSRVHAREVESAVWYVKKFGRYLE [S7R]: 1.48; for PSRVHAPEVESAVWYVKKFGRYLE [S7P]: 2.33. With PSRVHALEVESAVWYVKKFGRYLE [S7L] the figure was 1.64; with PSRVHANEVESAVWYVKKFGRYLE [S7N], 2.12. The same measure for PSRVHAVEVESAVWYVKKFGRYLE [S7V]: 2.13; for PSRVHAMEVESAVWYVKKFGRYLE [S7M]: 1.81.

Take PSRVHAYEVESAVWYVKKFGRYLE [S7Y]: the protein stability index came out at 2.4. With PSRVHAHEVESAVWYVKKFGRYLE [S7H] the figure was 2.24. The same measure for PSRVHAIEVESAVWYVKKFGRYLE [S7I]: 1.84; for PSRVHAGEVESAVWYVKKFGRYLE [S7G]: 1.66; for PSRVHASEVESDVWYVKKFGRYLE [A12D]: 2.13. With PSRVHASEVESEVWYVKKFGRYLE [A12E] the figure was 3.02; with PSRVHASEVESCVWYVKKFGRYLE [A12C], 1.49; with PSRVHASEVESFVWYVKKFGRYLE [A12F], 1.28. In the case of PSRVHASEVPSAVWYVKKFGRYLE [E10P], the protein stability index came to 2.04.

PSRVHASEVRSAVWYVKKFGRYLE [E10R]: the protein stability index was 2.37.

Regarding PSRVHASEVGSAVWYVKKFGRYLE [E10G], the protein stability index stood at 1.41. The same measure for PSRVHASEVVSAVWYVKKFGRYLE [E10V]: 1.54. On to PSRVHASEVMSAVWYVKKFGRYLE [E10M], for which the protein stability index stood at 1.49.

For the variant PSRVHASEVYSAVWYVKKFGRYLE [E10Y], the protein stability index was 2. For PSRVHASEVASAVWYVKKFGRYLE [E10A], the protein stability index is 1.64. With PSRVHASEVSSAVWYVKKFGRYLE [E10S] the figure was 2.51; with PSRVHASEVCSAVWYVKKFGRYLE [E10C], 1.99. The same measure for PSRVHASEVHSAVWYVKKFGRYLE [E10H]: 1.65; for PSRVHASEVNSAVWYVKKFGRYLE [E10N]: 1.66; for PSRVHASEVISAVWYVKKFGRYLE [E10I]: 1.85. The same measure for PSRVHASEVQSAVWYVKKFGRYLE [E10Q]: 2.17. Take PSRVHASEVKSAVWYVKKFGRYLE [E10K]: the protein stability index came out at 2.21. With PSRVHASEVFSAVWYVKKFGRYLE [E10F] the figure was 2.31; with PSRVHASEVDSAVWYVKKFGRYLE [E10D], 1.84; with PSRVHASEVLSAVWYVKKFGRYLE [E10L], 3.06. As to PSRVHASEVTSAVWYVKKFGRYLE [E10T], the protein stability index came to 2.69. With PSRVHASEVEAAVWYVKKFGRYLE [S11A] the figure was 2.03. For the variant PSRVHASEVEKAVWYVKKFGRYLE [S11K], the protein stability index was 2.91.

On to PSRVHASEVEHAVWYVKKFGRYLE [S11H], for which the protein stability index amounted to 2.08. With PSRVHASEVEGAVWYVKKFGRYLE [S11G] the figure was 1.84.

Turning to PSRVHASEVEWAVWYVKKFGRYLE [S11W], the protein stability index amounted to 1.54.

Regarding PSRVHASEVETAVWYVKKFGRYLE [S11T], the protein stability index came out at 2.03. The same measure for PSRVHASEVENAVWYVKKFGRYLE [S11N]: 1.97; for PSRVHASEVEPAVWYVKKFGRYLE [S11P]: 1.95; for PSRVHASEVEYAVWYVKKFGRYLE [S11Y]: 2.07.

On to PSRVHASEVEIAVWYVKKFGRYLE [S11I], for which the protein stability index came out at 2.1. The same measure for PSRVHASEVEMAVWYVKKFGRYLE [S11M]: 2.17; for PSRVHASEVEVAVWYVKKFGRYLE [S11V]: 1.57; for PSRVHASEVERAVWYVKKFGRYLE [S11R]: 2.07. With PSRVHASEVELAVWYVKKFGRYLE [S11L] the figure was 1.99; with PSRVHASEVEQAVWYVKKFGRYLE [S11Q], 1.64; with PSRVHASEVEFAVWYVKKFGRYLE [S11F], 1.74. The same measure for PSRVHASEVECAVWYVKKFGRYLE [S11C]: 2.4; for PSRVHASEVEDAVWYVKKFGRYLE [S11D]: 2.49. In the case of PSRVHASEVEEAVWYVKKFGRYLE [S11E], the protein stability index was 2.57.

As to PSRVHASEIESAVWYVKKFGRYLE [V9I], the protein stability index came to 2.01.

As for PSRVHASEEESAVWYVKKFGRYLE [V9E], the protein stability index turned out to be 3.31. The same measure for PSRVHASEMESAVWYVKKFGRYLE [V9M]: 1.92; for PSRVHASEWESAVWYVKKFGRYLE [V9W]: 1.61; for PSRVHASEPESAVWYVKKFGRYLE [V9P]: 2.33. With PSRVHASEKESAVWYVKKFGRYLE [V9K] the figure was 1.92; with PSRVHASELESAVWYVKKFGRYLE [V9L], 1.83; with PSRVHASEGESAVWYVKKFGRYLE [V9G], 3.35. With PSRVHASEQESAVWYVKKFGRYLE [V9Q] the figure was 2.35; with PSRVHASEHESAVWYVKKFGRYLE [V9H], 2.29; with PSRVHASEDESAVWYVKKFGRYLE [V9D], 2.96. Consider PSRVHASECESAVWYVKKFGRYLE [V9C], for which the protein stability index was found to be 2.48.

PSRVHASEAESAVWYVKKFGRYLE [V9A]: the protein stability index is 2.09. With PSRVHASENESAVWYVKKFGRYLE [V9N] the figure was 2.56; with PSRVHASESESAVWYVKKFGRYLE [V9S], 2.62; with PSRVHASERESAVWYVKKFGRYLE [V9R], 2.34. The same measure for PSRVHASETESAVWYVKKFGRYLE [V9T]: 2.33; for PSRVHASEYESAVWYVKKFGRYLE [V9Y]: 1.94; for PSRVHASEFESAVWYVKKFGRYLE [V9F]: 1.62. The same measure for PSRVHASPVESAVWYVKKFGRYLE [E8P]: 2.75; for PSRVHASMVESAVWYVKKFGRYLE [E8M]: 3.03.

Regarding PSRVHASCVESAVWYVKKFGRYLE [E8C], the protein stability index turned out to be 2.27.

As to PSRVHASWVESAVWYVKKFGRYLE [E8W], the protein stability index is 1.42.

For PSRVHASKVESAVWYVKKFGRYLE [E8K], the protein stability index worked out at 2.76. As for PSRVHASHVESAVWYVKKFGRYLE [E8H], the protein stability index came out at 2.38. With PSRVHASYVESAVWYVKKFGRYLE [E8Y] the figure was 3.1; with PSRVHASVVESAVWYVKKFGRYLE [E8V], 1.46; with PSRVHASAVESAVWYVKKFGRYLE [E8A], 3.81.

Regarding PSRVHASQVESAVWYVKKFGRYLE [E8Q], the protein stability index came to 1.85.

With PSRVHASRVESAVWYVKKFGRYLE [E8R], the protein stability index was 3.41. With PSRVHASLVESAVWYVKKFGRYLE [E8L] the figure was 2.36. The same measure for PSRVHASSVESAVWYVKKFGRYLE [E8S]: 1.68; for PSRVHASIVESAVWYVKKFGRYLE [E8I]: 2.11. With PSRVHASNVESAVWYVKKFGRYLE [E8N] the figure was 1.56; with PSRVHASGVESAVWYVKKFGRYLE [E8G], 1.7.

PSRVHASFVESAVWYVKKFGRYLE [E8F]: the protein stability index was 4.46. With PSRVHASDVESAVWYVKKFGRYLE [E8D] the figure was 2.08; with PSRVHASTVESAVWYVKKFGRYLE [E8T], 1.7.
